Article PMC8589989

Columns and labels:
His-MBP-ZNF384 [1] = target: T1, His-MBP-ZNF384 (human, UniProt Q8TF68-2 1-516); test: BLI; 400 nM protein; Pull-down: 10 mM Tris pH 7.5, 150 mM KCl, 5 mM MgCl2, 0.25% Tween-20, 3.5 mM DTT, 5% glycerol, 0.1% BSA, 4 C; BLI: 10 mM Tris pH 7.5, 150 mM KCl, 5 mM MgCl2, 0.05% Tween-20, 0.1% BSA, 1 mM DTT, 298 K; conditions: protein: recombinant; tags: His6-MBP; label: 5' biotin; single strand
T1 sequence: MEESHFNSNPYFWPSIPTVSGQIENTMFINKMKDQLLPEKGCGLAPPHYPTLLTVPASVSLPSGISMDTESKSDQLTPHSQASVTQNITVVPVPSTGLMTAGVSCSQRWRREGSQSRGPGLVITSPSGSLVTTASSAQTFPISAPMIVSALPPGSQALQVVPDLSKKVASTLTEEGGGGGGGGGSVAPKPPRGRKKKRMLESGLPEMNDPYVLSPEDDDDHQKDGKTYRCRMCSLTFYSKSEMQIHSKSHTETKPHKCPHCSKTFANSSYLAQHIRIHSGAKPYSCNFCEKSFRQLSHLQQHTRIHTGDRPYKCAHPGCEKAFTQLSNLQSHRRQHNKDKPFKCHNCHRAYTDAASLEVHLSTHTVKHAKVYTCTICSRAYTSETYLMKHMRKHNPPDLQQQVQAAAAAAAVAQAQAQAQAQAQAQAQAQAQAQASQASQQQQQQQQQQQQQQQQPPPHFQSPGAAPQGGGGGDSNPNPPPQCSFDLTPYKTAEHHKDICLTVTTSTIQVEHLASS

His-Ku70/Ku80 = His-Ku70/Ku80 (UniProt P12956;P13010 1-609;1-732); test: pull-down; 100 fmol Ku, without ZNF384; Pull-down: 10 mM Tris pH 7.5, 150 mM KCl, 5 mM MgCl2, 0.25% Tween-20, 3.5 mM DTT, 5% glycerol, 0.1% BSA, 4 C; BLI: 10 mM Tris pH 7.5, 150 mM KCl, 5 mM MgCl2, 0.05% Tween-20, 0.1% BSA, 1 mM DTT, 298 K; conditions: protein: recombinant; tags: His; copies: 1;1; label: 5' biotin on strand 1; 3' overhang 20 nt (strand 1, T-rich), 24 bp duplex
His-Ku70/Ku80, sequence (P12956 whole entry, chain 1 of 2): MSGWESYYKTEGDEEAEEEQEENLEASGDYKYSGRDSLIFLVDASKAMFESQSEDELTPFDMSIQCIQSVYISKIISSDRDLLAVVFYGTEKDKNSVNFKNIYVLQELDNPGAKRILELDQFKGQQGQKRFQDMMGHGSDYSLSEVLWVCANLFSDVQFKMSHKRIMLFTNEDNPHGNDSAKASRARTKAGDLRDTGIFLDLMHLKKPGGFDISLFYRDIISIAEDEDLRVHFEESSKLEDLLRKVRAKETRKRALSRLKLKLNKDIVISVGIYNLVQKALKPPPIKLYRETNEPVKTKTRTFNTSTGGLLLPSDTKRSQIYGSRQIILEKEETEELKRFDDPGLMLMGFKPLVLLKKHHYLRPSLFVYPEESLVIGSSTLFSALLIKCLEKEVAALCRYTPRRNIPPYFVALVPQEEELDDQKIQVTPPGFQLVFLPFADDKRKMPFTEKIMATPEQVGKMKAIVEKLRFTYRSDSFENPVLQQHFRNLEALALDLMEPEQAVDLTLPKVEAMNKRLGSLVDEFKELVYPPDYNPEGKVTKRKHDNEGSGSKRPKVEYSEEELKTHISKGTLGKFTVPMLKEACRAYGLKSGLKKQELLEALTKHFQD
His-Ku70/Ku80, sequence (P13010 whole entry, chain 2 of 2): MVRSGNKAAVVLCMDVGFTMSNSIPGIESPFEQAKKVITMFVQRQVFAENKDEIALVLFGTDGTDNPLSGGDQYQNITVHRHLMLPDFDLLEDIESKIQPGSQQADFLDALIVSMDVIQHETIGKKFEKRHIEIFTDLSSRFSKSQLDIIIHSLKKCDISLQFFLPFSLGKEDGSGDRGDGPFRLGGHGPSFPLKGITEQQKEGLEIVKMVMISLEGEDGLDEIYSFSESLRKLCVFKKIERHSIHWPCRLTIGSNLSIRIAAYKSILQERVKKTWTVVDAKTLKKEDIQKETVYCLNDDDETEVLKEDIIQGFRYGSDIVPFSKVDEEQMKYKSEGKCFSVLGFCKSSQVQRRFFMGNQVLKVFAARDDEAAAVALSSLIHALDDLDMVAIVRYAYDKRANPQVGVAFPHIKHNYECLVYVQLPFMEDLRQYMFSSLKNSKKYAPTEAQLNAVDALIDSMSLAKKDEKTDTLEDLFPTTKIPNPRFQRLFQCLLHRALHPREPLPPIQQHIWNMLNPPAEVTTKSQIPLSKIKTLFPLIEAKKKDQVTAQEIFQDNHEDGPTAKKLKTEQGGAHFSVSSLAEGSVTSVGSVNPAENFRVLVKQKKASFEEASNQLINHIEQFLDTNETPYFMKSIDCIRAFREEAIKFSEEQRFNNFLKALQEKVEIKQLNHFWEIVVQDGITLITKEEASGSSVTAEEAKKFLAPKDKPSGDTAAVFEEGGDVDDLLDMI

[2] = target: His-Ku70/Ku80;His-MBP-ZNF384 (human?;human, UniProt P12956;P13010;Q8TF68-2 1-609;1-732;1-516, |); test: pull-down; Ku binding enhanced by increasing ZNF384; Pull-down: 10 mM Tris pH 7.5, 150 mM KCl, 5 mM MgCl2, 0.25% Tween-20, 3.5 mM DTT, 5% glycerol, 0.1% BSA, 4 C; BLI: 10 mM Tris pH 7.5, 150 mM KCl, 5 mM MgCl2, 0.05% Tween-20, 0.1% BSA, 1 mM DTT, 298 K; conditions: protein: recombinant;recombinant; tags: His;His6-MBP; copies: 1;1;1; label: 5' biotin on strand 1; 3' overhang 20 nt (strand 1, T-rich), 24 bp duplex
His-Ku70/Ku80;His-MBP-ZNF384, sequence (P12956 whole entry, chain 1 of 2): as the sequence (P12956 whole entry, chain 1 of 2) above
His-Ku70/Ku80;His-MBP-ZNF384, sequence (P13010 whole entry, chain 2 of 2): as the sequence (P13010 whole entry, chain 2 of 2) above

His-MBP-ZNF384 [3] = target: T1, His-MBP-ZNF384; test: BLI; 400 nM protein; seemingly lower affinity than ssDNA; Pull-down: 10 mM Tris pH 7.5, 150 mM KCl, 5 mM MgCl2, 0.25% Tween-20, 3.5 mM DTT, 5% glycerol, 0.1% BSA, 4 C; BLI: 10 mM Tris pH 7.5, 150 mM KCl, 5 mM MgCl2, 0.05% Tween-20, 0.1% BSA, 1 mM DTT, 298 K; conditions: protein: recombinant, tags: His6-MBP, 24 bp duplex
His-MBP-ZNF384 [4] = target: T1, His-MBP-ZNF384; test: pull-down; did not show RNA binding; Pull-down: 10 mM Tris pH 7.5, 150 mM KCl, 5 mM MgCl2, 0.25% Tween-20, 3.5 mM DTT, 5% glycerol, 0.1% BSA, 4 C; BLI: 10 mM Tris pH 7.5, 150 mM KCl, 5 mM MgCl2, 0.05% Tween-20, 0.1% BSA, 1 mM DTT, 298 K; conditions: protein: recombinant; tags: His6-MBP; label: 5' biotin; single strand

GCGATCATGACGTAGACGATAGCGTTCTTTTTTTTTCTTTTTCT (ssDNA) [ssDNA T-strand (ssDNA(T))]: binds (His-MBP-ZNF384 [1]).

B1: 3' overhang DNA (dsDNA)
DNA 1: GCGATCATGACGTAGACGATAGCGTTCTTTTTTTTTCTTTTTCT
DNA 2: CGCTATCGTCTACGTCATGATCGC
B1: binds (His-Ku70/Ku80); binds [2]; binds (His-MBP-ZNF384 [3]; label: 5' biotin on strand 1, 3' overhang 20 nt (strand 1, T-rich)).

B2: 5' overhang DNA (dsDNA)
DNA 1: TTCTTTTTTTTTCTTTTTCTGCGATCATGACGTAGACGATAGCG
DNA 2: CGCTATCGTCTACGTCATGATCGC
B2: binds (His-MBP-ZNF384 [3]; label: 5' biotin on strand 2, 5' overhang 20 nt (strand 1, T-rich)).

GCGAUCAUGACGUAGACGAUAGCGUUCUUUUUUUUUCUUUUUCU (ssRNA) [RNA U-strand]: no binding (His-MBP-ZNF384 [4]).
